Data on 2 substances can be found in US20140378657A1.

Test [1] deals with biotinylated maltose binding protein (MBP-AviTag fusion, Avidity, LLC) [MBP: P0AEX9]. In words: SPR (BIAcoreX), biotinylated MBP-AviTag as immobilised ligand.
Test [2] shares this target. Kind of test: affinity column, elution with 5 mM d-biotin.
Test [3] shares this target. Kind of test: SPR, biotinylated MBP row of Table 2; footnote: value determined by the surface plasmon resonance method described in Qureshi and Wong (2002).

Chain of wild-type streptavidin (P22629 25-183 limits assumed): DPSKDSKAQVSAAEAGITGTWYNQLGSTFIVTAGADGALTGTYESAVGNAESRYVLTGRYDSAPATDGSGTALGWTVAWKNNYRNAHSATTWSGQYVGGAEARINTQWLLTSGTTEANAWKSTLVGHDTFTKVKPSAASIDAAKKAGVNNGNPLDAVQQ

Turning to “streptavidin mutein SBPM18 (S27A, G48T) (designed binder)”, in test [1], the Kd amounted to 11.5 nM, the koff came to 0.00265 s⁻¹ and the kon came to 230000 M⁻¹ s⁻¹. The same substance registered a recovery from affinity column in test [2] of 90%.
Take “wild-type streptavidin (from UniProt P22629 25-183)”: the association rate constant (kon) in test [3] came to 5.13e+06 M⁻¹ s⁻¹.
